One protein from publication PMC3526665 (Protein and peptide letters, 2010) can be followed below.

This data set concerns the molecule itself. Nature of the data set: SEC. A general note: SEC sorts molecules by how far they enter the pores of the column.

B1: cytoplasmic domain of QseC (QseC-CD) (domain or fragment, E. coli)
chain: RERRFTSDAAHELRSPLTALKVQTEVAQLSDDDPQARKKALLQLHSGIDRATRLVDQLLTLSRLDSLDNLQDVAEIPLEDLLQSSVMDIYHTAQQAKIDVRLTLNAHSIKRTGQPLLLSLLVRNLLDNAVRYSPQGSVVDVTLNADNFIVRDNGPGVTPEALARIGERFYRPPGQTATGSGLGLSIVQRIAKLHGMNVEFGNAEQGGFEAKVSWLE
On to B1, for which the “stoichiometry N” value is 2.

In general, stoichiometry N refers to a count of units in the complex or per binding partner.
